Experimental data as given in publication PMC7954794, “Protein context shapes the specificity of SH3 domain-mediated interactions in vivo” (Nature Communications, 2021).

Tested on: Abp1 PPIs
Assay: DHFR-PCA of Abp1 SH3-swapped baits (Fig. 2B-D, S2C, S2F);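 for Protein-protein interaction distance between Abp1 SH3-swapped baits, to ABP1: Euclidean distance between DHFR-PCA score profiles of the baits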;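 for Protein-protein interaction distance between Abp1 SH3-swapped baits, to BEM1-2: Euclidean distance between DHFR-PCA score profiles of the baits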;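 for Protein-protein interaction distance between Abp1 SH3-swapped baits, to BOI1: Euclidean distance between DHFR-PCA score profiles of the baits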;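 for Protein-protein interaction distance between Abp1 SH3-swapped baits, to BZZ1-1: Euclidean distance between DHFR-PCA score profiles of the baits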
Type: cell-based, Saccharomyces cerevisiae
Settings: sheet Fig2C
Procedure, shortened: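 Interactions were scored by DHFR protein-fragment complementation. DHFR F[1,2]-tagged Abp1 strains, whose SH3 was swapped for yeast or human ortholog domains, were crossed on YPD at 30 °C for 48 h with a 1536-format array of 575 prey-DHFR F[3] strains and 40 negatives, giving four replicates per pair. PCA selection lasted 4 days after double diploid selection.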

B1: SDC25 (protein, UniProt P0CF34 1-1048, looked up)
Putative truncated guanine …: MPITSSPDLFYLNDCDVVYWYDLTRLVCHYVNLTERDLLANEREKFLTSLDLLTAQITYVYMLFRNLRLVEDSFKKTLKKLIYTLSRFSINANIWFHSTLFEEREAIASQKDPERRSPLLQSILGTFQKFHFLLRLLHFLSNPNELTILPQLTPRFFKDSFNTISWNNPFLRKRLNQHMSHDLPRQMIKAVAGASGIVAENIDEIPASKQGTSCSSETSHHSPSAPFQRRRRGTIFSNVSGSSDESDTIWSKRKKPYPLNEETLSLVRARKKQLDGKLKQMIKSANEYLSNTANFSKMLNFEMNFKTYEEVSGTIPIIDILENLDLTIFLNLRELGDENRVFDEDVAIDDEDEEFLKHSLSSLSYILSDYFNMKQYFHDVVVKFIIVAQHLTLEDPFVFSPMQNDLPTGYYEPMKPSSLNLDNAKDKKNGSQNTDIQEEEDEYEPDPDSLILFHNLINQDSDFNDLKFFNLAHVFKKSCDDYFDVLKLAIEFVNQLILERENLLNYAARMMKNNITELLLRGEEGYGSYDGGETAEKSDTNAVYADSDTKDNDEWRDSQVKLPRYLQREYDSELIWGSNNRIKGGSKHALISYLTDNEKKDLFFDITFLITFRSIFTTTEFLSYLISQYNLDPPEDLCFEEYNEWVTKKLIPVKCRVVEIMTTFFKQYWFLGYDEPDLATLNLDYFAQVAIKENITGSVELLKEVNQKFKHGNIQEATAPMKTLDQQICQDHYSGTLYSTTESILAVDPVLFATQLTILEHEIYCEITIFDCLQKIWKNKYTKSYGASPGLNEFISFANKLTNFISYSVVKEADKSKRAKLLSHFIFIAEYCRKFNNFSSMTAIISALYSSPIYRLEKTWQAVIPQTRDLLQSLNKLMDPKKNFINYRNELKSLHSAPCVPFFGVYLSDLTFTDSGNPDYLVLEHGLKGVHDEKKYINFNKRSRLVDILQEIIYFKKTHYDFTKDRTVIECISNSLENIPHIEKQYQLSLIIEPKPRKKVVPNSNSNNKSQEKSRDDQTDEGKTSTKKDRFPKFQLHKTKKKAPKVSK
Q: For B1, which “Protein-protein interaction distance between Abp1 SH3-swapped baits, to ABP1” value (Abp1 bait with swapped SH3, distance to bait with ABP1 SH3) is on record?
A: 33.14

Q: What about the “Protein-protein interaction distance between Abp1 SH3-swapped baits, to BBC1” value (distance to Abp1 bait with BBC1 SH3) of the same molecule?
A: 31.85

Q: And the “Protein-protein interaction distance between Abp1 SH3-swapped baits, to BEM1-1” value (distance to Abp1 bait with BEM1-1 SH3)?
A: 25.75

Q: And the “Protein-protein interaction distance between Abp1 SH3-swapped baits, to BEM1-2” value (distance to Abp1 bait with BEM1-2 SH3)?
A: 6.672

Q: What about the “Protein-protein interaction distance between Abp1 SH3-swapped baits, to BOI1” value (distance to Abp1 bait with BOI1 SH3) of the same molecule?
A: 29.16

Q: What about the “Protein-protein interaction distance between Abp1 SH3-swapped baits, to BOI2” value (distance to Abp1 bait with BOI2 SH3) of the same molecule?
A: 28.39

Q: And the “Protein-protein interaction distance between Abp1 SH3-swapped baits, to BUD14” value (distance to Abp1 bait with BUD14 SH3)?
A: 24.65

Q: What about the “Protein-protein interaction distance between Abp1 SH3-swapped baits, to BZZ1-1” value (distance to Abp1 bait with BZZ1-1 SH3) of the same molecule?
A: 32.5

Q: What about the “Protein-protein interaction distance between Abp1 SH3-swapped baits, to BZZ1-2” value (distance to Abp1 bait with BZZ1-2 SH3) of the same molecule?
A: 29.97

Q: And the “Protein-protein interaction distance between Abp1 SH3-swapped baits, to CDC25” value (distance to Abp1 bait with CDC25 SH3)?
A: 14.8

Q: And the “Protein-protein interaction distance between Abp1 SH3-swapped baits, to CTTN” value (distance to Abp1 bait with CTTN SH3)?
A: 27.81

Q: What about the “Protein-protein interaction distance between Abp1 SH3-swapped baits, to CYK3” value (distance to Abp1 bait with CYK3 SH3) of the same molecule?
A: 15.21

Q: What about the “Protein-protein interaction distance between Abp1 SH3-swapped baits, to DBNL” value (distance to Abp1 bait with DBNL SH3) of the same molecule?
A: 31.69

Q: What about the “Protein-protein interaction distance between Abp1 SH3-swapped baits, to FUS1” value (distance to Abp1 bait with FUS1 SH3) of the same molecule?
A: 24.28

Q: What about the “Protein-protein interaction distance between Abp1 SH3-swapped baits, to HCLS1” value (distance to Abp1 bait with HCLS1 SH3) of the same molecule?
A: 34.87

Q: And the “Protein-protein interaction distance between Abp1 SH3-swapped baits, to HOF1” value (distance to Abp1 bait with HOF1 SH3)?
A: 7.905

Q: What about the “Protein-protein interaction distance between Abp1 SH3-swapped baits, to HSE1” value (distance to Abp1 bait with HSE1 SH3) of the same molecule?
A: 31.59

Q: What about the “Protein-protein interaction distance between Abp1 SH3-swapped baits, to LSB1” value (distance to Abp1 bait with LSB1 SH3) of the same molecule?
A: 37.12

Q: And the “Protein-protein interaction distance between Abp1 SH3-swapped baits, to LSB3” value (distance to Abp1 bait with LSB3 SH3)?
A: 36.63

Q: What about the “Protein-protein interaction distance between Abp1 SH3-swapped baits, to MYO3” value (distance to Abp1 bait with MYO3 SH3) of the same molecule?
A: 35.91

Q: And the “Protein-protein interaction distance between Abp1 SH3-swapped baits, to MYO5” value (distance to Abp1 bait with MYO5 SH3)?
A: 35.29

Q: And the “Protein-protein interaction distance between Abp1 SH3-swapped baits, to NBP2” value (distance to Abp1 bait with NBP2 SH3)?
A: 24.44

Q: And the “Protein-protein interaction distance between Abp1 SH3-swapped baits, to PEX13” value (distance to Abp1 bait with PEX13 SH3)?
A: 35.86

Q: And the “Protein-protein interaction distance between Abp1 SH3-swapped baits, to PIN3” value (distance to Abp1 bait with PIN3 SH3)?
A: 34.35

Q: And the “Protein-protein interaction distance between Abp1 SH3-swapped baits, to RVS167” value (distance to Abp1 bait with RVS167 SH3)?
A: 34.37

Q: What about the “Protein-protein interaction distance between Abp1 SH3-swapped baits, to SDC25” value (distance to Abp1 bait with SDC25 SH3) of the same molecule?
A: 0.00

Q: And the “Protein-protein interaction distance between Abp1 SH3-swapped baits, to SHO1” value (distance to Abp1 bait with SHO1 SH3)?
A: 31.28

Q: What about the “Protein-protein interaction distance between Abp1 SH3-swapped baits, to SLA1-1” value (distance to Abp1 bait with SLA1-1 SH3) of the same molecule?
A: 14.07

Q: And the “Protein-protein interaction distance between Abp1 SH3-swapped baits, to SLA1-2” value (distance to Abp1 bait with SLA1-2 SH3)?
A: 23.99

Q: And the “Protein-protein interaction distance between Abp1 SH3-swapped baits, to SLA1-3” value (distance to Abp1 bait with SLA1-3 SH3)?
A: 37.49

Q: What about the “Protein-protein interaction distance between Abp1 SH3-swapped baits, to YSC84” value (distance to Abp1 bait with YSC84 SH3) of the same molecule?
A: 36.86
